Three molecules from patent US20080027001A1 (published 2008) can be followed below.

Experiment [1] concerns the target T1, mutant NgR1 EM11 (R279A) (human, UniProt Q9BZR6 27-447).
T1 construct: whole, on cells
T1 sequence (looked up): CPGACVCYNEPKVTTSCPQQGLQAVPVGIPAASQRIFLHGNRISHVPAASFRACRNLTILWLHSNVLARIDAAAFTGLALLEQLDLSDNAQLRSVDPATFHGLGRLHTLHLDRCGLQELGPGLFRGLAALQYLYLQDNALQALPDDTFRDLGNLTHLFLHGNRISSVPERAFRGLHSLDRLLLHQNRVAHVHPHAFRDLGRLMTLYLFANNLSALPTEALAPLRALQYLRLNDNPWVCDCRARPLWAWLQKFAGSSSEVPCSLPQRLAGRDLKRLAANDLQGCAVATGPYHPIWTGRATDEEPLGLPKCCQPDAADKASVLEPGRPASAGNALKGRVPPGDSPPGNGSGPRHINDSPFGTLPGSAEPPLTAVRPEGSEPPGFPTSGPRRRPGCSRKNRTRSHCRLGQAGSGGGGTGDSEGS
Briefly: MAG-AP (10 µg/ml) on transfected COS-7 cells, AP luminescence, corrected for background and transfection efficiency. Here is the method: (§1) The remaining cells were separately plated and assayed for surface expression of the NgR1 proteins by immunocytochemistry (Example 1.9) and for total NgR1 protein levels by Western blot analysis (Example 1.8). […] The next day, wells were rinsed once with HBAH (Hank's Balanced Salt Solution (HBSS) containing bovine serum albumin (0.5 mg/ml), NaN₃ (0.1%), and 20 mM HEPES pH 7.0) at room temperature followed by incubation with 100 μl of AP fusion protein (MAG-AP or Nogo-66-AP) diluted to a final concentration of 10 μg/ml in HBAH for 90 minutes. Wells were then washed six times with gentle shaking in HBAH at room temperature, five minutes each wash. Cells were then fixed with acetone-formaldehyde (60%-3%, in 20 mM HEPES, pH 7.0) for 15 seconds at room temperature, then washed three times for five minutes each with HBSS. Binding of AP-tagged ligands was measured using the Great EscAPe SEAP Kit (BD Biosciences) following the manufacturer's recommended protocol. Briefly, after aspirating HBSS, 60 μl of dilution buffer was added to each well, the plates were sealed, and then incubated at 65° C. for 90 min. Plates were cooled on ice and then 60 μl of assay buffer was added per well and incubated at room temperature for five minutes. Sixty microliters of diluted CSPD® substrate (Applied Biosystems, Foster City, Calif.) was then added per well, incubated for 10 minutes at room temperature, and then read on an LMAXII luminometer (Molecular Devices). Absolute binding numbers were corrected by subtracting average binding values obtained from mock-transfected controls. Binding was further corrected for sample-to-sample variations in transfection efficiency by normalizing to beta-galactosidase activity. Beta-galactosidase activity was measured using the luminescent beta-gal detection kit II (BD Biosciences) following the manufacturer's recommended protocol. Three independent binding experiments were conducted with six to eleven replicates per experiment. Background-subtracted, beta-galactosidase-corrected binding values were expressed relative to the wild type receptor.

Experiment [2] addresses T2, mutant NgR1 EM7 (K277D/R279D) (human, UniProt Q9BZR6 27-447).
T2 construct: whole, on cells
T2 sequence (looked up): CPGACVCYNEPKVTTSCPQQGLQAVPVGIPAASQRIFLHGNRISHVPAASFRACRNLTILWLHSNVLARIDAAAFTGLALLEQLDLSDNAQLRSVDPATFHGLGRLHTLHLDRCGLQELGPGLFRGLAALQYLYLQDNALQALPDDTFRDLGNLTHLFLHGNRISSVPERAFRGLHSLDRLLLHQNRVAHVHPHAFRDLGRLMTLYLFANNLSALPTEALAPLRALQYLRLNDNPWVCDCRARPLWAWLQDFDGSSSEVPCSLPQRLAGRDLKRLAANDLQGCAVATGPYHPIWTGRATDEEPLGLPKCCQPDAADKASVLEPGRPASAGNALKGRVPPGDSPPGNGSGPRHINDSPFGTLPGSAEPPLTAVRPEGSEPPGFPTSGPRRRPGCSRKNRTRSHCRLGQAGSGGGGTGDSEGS
Described as above. As for the experimental part:
as §1

For experiment [3], the target named is T3, mutant NgR1 EM8 (K277A, R279A) (human, UniProt Q9BZR6 27-447).
T3 construct: whole, on cells
T3 sequence (looked up): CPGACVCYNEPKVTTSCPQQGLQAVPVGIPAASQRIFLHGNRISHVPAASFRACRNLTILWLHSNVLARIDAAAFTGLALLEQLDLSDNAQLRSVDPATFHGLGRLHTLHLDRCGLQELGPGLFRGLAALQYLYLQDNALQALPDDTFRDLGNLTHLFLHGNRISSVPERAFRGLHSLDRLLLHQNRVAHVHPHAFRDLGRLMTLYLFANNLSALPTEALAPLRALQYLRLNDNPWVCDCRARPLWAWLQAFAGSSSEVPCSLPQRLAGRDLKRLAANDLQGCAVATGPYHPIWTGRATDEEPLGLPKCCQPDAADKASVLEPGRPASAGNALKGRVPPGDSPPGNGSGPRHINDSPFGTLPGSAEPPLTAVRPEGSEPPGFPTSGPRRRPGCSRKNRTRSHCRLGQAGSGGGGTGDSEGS
Described as above. As for the experimental part:
as §1

In a further experiment the target is T4, mutant NgR1 EM10 (K277A) (human, UniProt Q9BZR6 27-447).
T4 construct: whole, on cells
T4 sequence (looked up): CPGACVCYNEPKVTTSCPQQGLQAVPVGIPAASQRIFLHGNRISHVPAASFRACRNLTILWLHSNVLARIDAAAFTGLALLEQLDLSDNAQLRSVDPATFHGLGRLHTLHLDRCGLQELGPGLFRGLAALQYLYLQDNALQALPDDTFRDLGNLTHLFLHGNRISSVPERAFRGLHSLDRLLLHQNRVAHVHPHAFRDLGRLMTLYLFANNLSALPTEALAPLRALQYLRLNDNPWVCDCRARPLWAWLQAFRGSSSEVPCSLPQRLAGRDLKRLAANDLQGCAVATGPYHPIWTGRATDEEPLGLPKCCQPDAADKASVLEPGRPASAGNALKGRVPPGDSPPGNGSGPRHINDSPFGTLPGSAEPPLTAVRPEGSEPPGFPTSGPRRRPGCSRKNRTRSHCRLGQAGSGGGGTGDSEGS
The experiment in a line: Nogo-66-AP (10 µg/ml) on transfected COS-7 cells, AP luminescence. As for the experimental part:
as §1

Experiment [4] has as its target T1, mutant NgR1 EM11 (R279A). The experiment is described as above. Here is the method:
as §1

For experiment [5], the target named is T2, mutant NgR1 EM7 (K277D/R279D). The experiment is described as above. Here is the method: as §1
Experiment [6] deals with T3, mutant NgR1 EM8 (K277A, R279A). The description is as above. As for the experimental part: as §1
Experiment [7] addresses Recombinant MAG-Fc chimera (R&D Systems). The experiment in a line: cell-based or functional assay.

Bridges are numbered along the chain shown (N, C = ends).

B1: MAG-AP (N-terminal human myelin associated glycoprotein amino acids 1-516, C-terminal alkaline phosphatase domain amino acids 23-511, six C-terminal histidine … (ligand)
chain: GHWGAWMPSSISAFEGTCVSIPCRFDFPDELRPAVVHGVWYFNSPYPKNYPPVVFKSRTQVVHESFQGRSRLLGDLGLRNCTLLLSNVSPELGGKYYFRGDLGGYNQYTFSEHSVLDIVNTPNIVVPPEVVAGTEVEVSCMVPDNCPELRPELSWLGHEGLGEPAVLGRLREDEGTWVQVSLLHFVPTREANGHRLGCQASFPNTTLQFEGYASMDVKYPPVIVEMNSSVEAIEGSHVSLLCGADSNPPPLLTWMRDGTVLREAVAESLLLELEEVTPAEDGVYACLAENAYGQDNRTVGLSVMYAPWKPTVNGTMVAVEGETVSILCSTQSNPDPILTIFKEKQILSTVIYESELQLELPAVSPEDDGEYWCVAENQYGQRATAFNLSVEFAPVLLLESHCAAARDTVQCLCVVKSNPEPSVAFELPSRNVTVNESEREFVYSERSGLVLTSILTLRGQAQAPPRVICTARNLYGAKSLELPFQGAHRLMWAKIGPIIPVEEENPDFWNREAAEALGAAKKLQPAQTAAKNLIIFLGDGMGVSTVTAARILKGQKKDKLGPEIPLAMDRFPYVALSKTYNVDKHVPDSGATATAYLCGVKGNFQTIGLSAAARFNQCNTTRGNEVISVMNRAKKAGKSVGVVTTTRVQHASPAGTYAHTVNRNWYSDADVPASARQEGCQDIATQLISNMDIDVILGGGRKYMFRMGTPDPEYPDDYSQGGTRLDGKNLVQEWLAKRQGARYVWNRTELMQASLDPSVTHLMGLFEPGDMKYEIHRDSTLDPSLMEMTEAALRLLSRNPRGFFLFVEGGRIDHGHHESRAYRALTETIMFDDAIERAGQLTSEEDTLSLVTADHSHVFSFGGYPLRGSSIFGLAPGKARDRKAYTVLLYGNGPGYVLKDGARPDVTESESGSPEYRQQSAVPLDEETHAGEDVAVFARGPQAHLVHGVQEQTFIAHVMAFAACLEPYTACDLAPPAGTTDAAHPGHHHHHH
notes: range 1-516;range 23-511; also called alkaline phosphatase-labeled MAG; MAG-AP fusion protein
Regarding B1, the “percent reduction in binding relative to wild type NgR1” value with mutant NgR1 EM11 (R279A) [1] was found to be 36%; in experiment [2], 57%; in experiment [3], 58%.

B2: Nogo-66-AP(C47V) (ligand)
chain: IIPVEEENPDFWNREAAEALGAAKKLQPAQTAAKNLIIFLGDGMGVSTVTAARILKGQKKDKLGPEIPLAMDRFPYVALSKTYNVDKHVPDSGATATAYLCGVKGNFQTIGLSAAARFNQCNTTRGNEVISVMNRAKKAGKSVGVVTTTRVQHASPAGTYAHTVNRNWYSDADVPASARQEGCQDIATQLISNMDIDVILGGGRKYMFRMGTPDPEYPDDYSQGGTRLDGKNLVQEWLAKRQGARYVWNRTELMQASLDPSVTHLMGLFEPGDMKYEIHRDSTLDPSLMEMTEAALRLLSRNPRGFFLFVEGGRIDHGHHESRAYRALTETIMFDDAIERAGQLTSEEDTLSLVTADHSHVFSFGGYPLRGSSIFGLAPGKARDRKAYTVLLYGNGPGYVLKDGARPDVTESESGSPEYRQQSAVPLDEETHAGEDVAVFARGPQAHLVHGVQEQTFIAHVMAFAACLEPYTACDLAPPAGTTDAAHPGRIYKGVIQAIQKSDEGHPFRAYLESEVAISEELVQKYSNSALGHVNVTIKELRRLFLVDDLVDSLKHHHHHH
notes: Any secretion signal in front of AP is not described; also called alkaline phosphatase-labeled Nogo-66
As for B2, the binding result (with mutant NgR1 EM10 (K277A); in the experiment with mutant NgR1 EM11 (R279A) [4]; in experiment [5]; in experiment [6]) was “binds” throughout.
On to Ac-CQKARGC-NH2 (disulfide 1-7 (inferred)) [NRL2bA2 (N-Ac-CQKARGC-NH2)], for which the “neurite outgrowth, MAG-Fc at 20 µg/ml: reduction of peptide efficacy against NRL2b” value in experiment [7] was roughly 2 fold.
